Results as given in patent US9260483B2, “Triazacyclononane-based phosphinate ligand and its use for molecular imaging” (TECHNISCHE UNIVERSITÄT MÜNCHEN, priority 2011, dated 2016).
Where two headings read alike, the source gives them in different places.

How the values were obtained:
in vivo = test: in vivo; parameters: species or system mice; details: CD-1 athymic nude, mouse, total radioactivity
Experimental: Biodistribution of ^68Ga-R3PEG4P9
Biodistribution studies were performed using CD-1 athymic nude mice bearing human melanoma xenografts on both shoulders (right: M21 cell line with high αvβ3 integrin xexpression, left: M21L cell line with low αvβ3 integrin expression). The mice were injected 6-9 MBq of ^68Ga-R3PEG4P9 (specific activity: ca. 900 GBq/μmol, corresponding to approx. 7-10 pmol of the tracer). After the specified time points (60 and 120 min, respectively), the mice were sacrificed, the organs taken out and counted in a gamma counter. For blockade, the mice were administered 200 μg (approx. 10 mg/kg) of unlabeled R3PEG4P9 10 min before tracer injection.
Data is visualized in the chart (FIG. 3).

[1] = test system: CD-1 athymic nude mice bearing human melanoma xenografts; details: mouse
[2] = Log P determination: octanol-water partition coefficient (1-octanol/PBS) of the labelled compound
Experimental: Octanol-water partition coefficients were determined by addition of ca. 50 kBq of the respective labelled compound to Eppendorf cup containing each 500 μl of 1-octanol and isotonic phosphate buffered saline (PBS). After 2 min of vigorous stirring, the phases were separated by centrifugation, 100 μl aliquots of each phase taken out and the activity contained determined with a gamma counter. Each experiment was repeated 5-8 times.

αvβ3 integrin = molecular target: T1, αvβ3 integrin (Homo sapiens, UniProt P05106+P06756); test: In vitro binding assay: displacement of 125I-echistatin on M21 human melanoma cells; details: log IC50
T1 construct: endogenous in cells; host or cells: M21 human melanoma cells
T1 sequence (P06756 31-889 limits assumed): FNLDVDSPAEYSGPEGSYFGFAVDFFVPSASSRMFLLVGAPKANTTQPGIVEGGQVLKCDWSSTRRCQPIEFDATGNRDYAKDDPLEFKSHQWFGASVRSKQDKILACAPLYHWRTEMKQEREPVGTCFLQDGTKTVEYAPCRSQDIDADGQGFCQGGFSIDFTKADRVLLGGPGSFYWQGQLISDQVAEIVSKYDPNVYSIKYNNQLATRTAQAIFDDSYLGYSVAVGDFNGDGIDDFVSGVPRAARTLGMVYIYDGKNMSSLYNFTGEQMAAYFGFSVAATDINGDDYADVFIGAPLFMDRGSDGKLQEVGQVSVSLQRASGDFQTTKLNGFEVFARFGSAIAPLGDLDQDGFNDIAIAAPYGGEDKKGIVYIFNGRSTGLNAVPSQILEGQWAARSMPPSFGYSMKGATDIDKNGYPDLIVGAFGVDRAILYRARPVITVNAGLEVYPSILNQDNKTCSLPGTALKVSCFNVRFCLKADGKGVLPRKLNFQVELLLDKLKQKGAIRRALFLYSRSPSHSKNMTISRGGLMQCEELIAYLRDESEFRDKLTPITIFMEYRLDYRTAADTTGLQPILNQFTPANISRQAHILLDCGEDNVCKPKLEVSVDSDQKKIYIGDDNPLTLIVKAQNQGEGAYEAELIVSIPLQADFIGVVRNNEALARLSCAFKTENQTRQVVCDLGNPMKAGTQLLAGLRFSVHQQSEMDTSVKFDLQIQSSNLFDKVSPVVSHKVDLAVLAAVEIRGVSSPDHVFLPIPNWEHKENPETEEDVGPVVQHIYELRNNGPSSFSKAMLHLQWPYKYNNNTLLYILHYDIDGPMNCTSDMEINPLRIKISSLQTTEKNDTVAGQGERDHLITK
T1 sequence (P06756 891-1048 partner limits assumed): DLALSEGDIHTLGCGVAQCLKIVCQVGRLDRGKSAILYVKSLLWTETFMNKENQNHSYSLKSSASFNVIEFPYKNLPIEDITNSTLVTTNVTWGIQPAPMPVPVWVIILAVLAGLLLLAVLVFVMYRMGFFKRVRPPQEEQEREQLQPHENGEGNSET
T1 sequence (P05106 27-788): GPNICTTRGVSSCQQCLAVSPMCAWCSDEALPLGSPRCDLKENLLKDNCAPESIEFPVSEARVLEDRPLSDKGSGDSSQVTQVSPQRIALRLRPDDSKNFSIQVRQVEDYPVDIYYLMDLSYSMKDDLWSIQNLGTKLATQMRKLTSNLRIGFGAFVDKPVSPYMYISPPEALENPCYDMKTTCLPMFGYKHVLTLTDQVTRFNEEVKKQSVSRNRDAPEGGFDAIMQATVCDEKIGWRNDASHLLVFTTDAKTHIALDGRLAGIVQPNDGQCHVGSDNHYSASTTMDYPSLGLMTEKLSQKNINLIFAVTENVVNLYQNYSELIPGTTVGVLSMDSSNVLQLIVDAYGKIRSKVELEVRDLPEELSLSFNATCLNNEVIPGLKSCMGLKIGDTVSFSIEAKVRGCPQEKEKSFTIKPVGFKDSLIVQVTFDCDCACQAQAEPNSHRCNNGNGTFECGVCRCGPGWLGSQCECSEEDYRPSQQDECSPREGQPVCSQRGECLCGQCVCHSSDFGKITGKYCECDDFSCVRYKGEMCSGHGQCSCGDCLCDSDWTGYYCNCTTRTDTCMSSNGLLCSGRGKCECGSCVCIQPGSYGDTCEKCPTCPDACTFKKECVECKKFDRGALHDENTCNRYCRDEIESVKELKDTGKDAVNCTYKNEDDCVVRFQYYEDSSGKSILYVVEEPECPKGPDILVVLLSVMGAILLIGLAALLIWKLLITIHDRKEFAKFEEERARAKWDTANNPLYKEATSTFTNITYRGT

In the case of `N=C(N)NCCC[C@@H]1NC(=O)[C@H](CCCCNC(=O)CCOCCOCCOCCOCCNC(=O)CCP(=O)(O)CN2CCN(CP(=O)(O)CCC(=O)NCCOCCOCCOCCOCCC(=O)NCCCC[C@@H]3NC(=O)[C@@H](Cc4ccccc4)NC(=O)[C@H](CC(=O)O)NC(=O)CNC(=O)[C@H](CCCNC(=N)N)NC3=O)CCN(CP(=O)(O)CCC(=O)NCCOCCOCCOCCOCCC(=O)NCCCC[C@@H]3NC(=O)[C@@H](Cc4ccccc4)NC(=O)[C@H](CC(=O)O)NC(=O)CNC(=O)[C@H](CCCNC(=N)N)NC3=O)CC2)NC(=O)[C@@H](Cc2ccccc2)NC(=O)[C@H](CC(=O)O)NC(=O)CNC1=O` (single isomer, unassigned) [68Ga-R3PEG4P9, metal not drawn], the tissue uptake at 1 h (in vivo; adrenal gland, 60 min, blocked, read-out: uptake % ID/g, adrenal gland) is reported as 0.36 %ID/g, the tissue uptake at 1 h (in vivo; adrenal gland, 60 min, read-out: uptake % ID/g, adrenal gland) is reported as 27.8 %ID/g and the tissue uptake at 2 h (in vivo; adrenal gland, 120 min, read-out: uptake % ID/g, adrenal gland) is reported as 24.2 %ID/g. For the same compound, the tissue uptake at 1 h (in vivo; blood, 60 min, blocked (200 μg unlabeled R3PEG4P9 10 min before), read-out: uptake % ID/g, blood) was 0.09 %ID/g, the tissue uptake at 1 h (in vivo; blood, 60 min after tracer injection, read-out: uptake % ID/g, blood) was 0.31 %ID/g and the tissue uptake at 2 h (in vivo; blood, 120 min after tracer injection, read-out: uptake % ID/g, blood) was 0.16 %ID/g. The tissue uptake at 1 h (in vivo; heart, 60 min, blocked, read-out: uptake % ID/g, heart) was 0.08 %ID/g, the tissue uptake at 1 h (in vivo; heart, 60 min, read-out: uptake % ID/g, heart) was 1.29 %ID/g and the tissue uptake at 2 h (in vivo; heart, 120 min, read-out: uptake % ID/g, heart) was 1.47 %ID/g. It also gave a tissue uptake at 1 h (in vivo; kidneys, 60 min, blocked, read-out: uptake % ID/g, kidneys) of 1.97 %ID/g, a tissue uptake at 1 h (in vivo; kidneys, 60 min, read-out: uptake % ID/g, kidneys) of 10.2 %ID/g and a tissue uptake at 2 h (in vivo; kidneys, 120 min, read-out: uptake % ID/g, kidneys) of 8.63 %ID/g. The tissue uptake at 1 h (in vivo; large int., 60 min, blocked, read-out: uptake % ID/g, large int.) was 0.11 %ID/g, the tissue uptake at 1 h (in vivo; large int., 60 min, read-out: uptake % ID/g, large int.) was 2.44 %ID/g and the tissue uptake at 2 h (in vivo; large int., 120 min, read-out: uptake % ID/g, large int.) was 2.27 %ID/g. The tissue uptake at 1 h (in vivo; liver, 60 min, blocked, read-out: uptake % ID/g, liver) was 0.32 %ID/g, the tissue uptake at 1 h (in vivo; liver, 60 min, read-out: uptake % ID/g, liver) was 5.18 %ID/g and the tissue uptake at 2 h (in vivo; liver, 120 min, read-out: uptake % ID/g, liver) was 3.97 %ID/g. For the same compound, the tissue uptake at 1 h (in vivo; lung, 60 min, blocked, read-out: uptake % ID/g, lung) was 0.54 %ID/g, the tissue uptake at 1 h (in vivo; lung, 60 min, read-out: uptake % ID/g, lung) was 2.96 %ID/g and the tissue uptake at 2 h (in vivo; lung, 120 min, read-out: uptake % ID/g, lung) was 2.15 %ID/g. It also gave a tissue uptake at 1 h (in vivo; muscle, 60 min, blocked, read-out: uptake % ID/g, muscle) of 0.05 %ID/g, a tissue uptake at 1 h (in vivo; muscle, 60 min, read-out: uptake % ID/g, muscle) of 0.95 %ID/g and a tissue uptake at 2 h (in vivo; muscle, 120 min, read-out: uptake % ID/g, muscle) of 0.67 %ID/g. For the same compound, the tissue uptake at 1 h (in vivo; pancreas, 60 min, blocked, read-out: uptake % ID/g, pancreas) was 0.07 %ID/g, the tissue uptake at 1 h (in vivo; pancreas, 60 min, read-out: uptake % ID/g, pancreas) was 0.88 %ID/g and the tissue uptake at 2 h (in vivo; pancreas, 120 min, read-out: uptake % ID/g, pancreas) was 0.81 %ID/g. It also gave a tissue uptake at 1 h (in vivo; small int., 60 min, blocked, read-out: uptake % ID/g, small int.) of 0.24 %ID/g, a tissue uptake at 1 h (in vivo; small int., 60 min, read-out: uptake % ID/g, small int.) of 4.92 %ID/g and a tissue uptake at 2 h (in vivo; small int., 120 min, read-out: uptake % ID/g, small int.) of 3.75 %ID/g. For the same compound, the tissue uptake at 1 h (in vivo; spleen, 60 min, blocked, read-out: uptake % ID/g, spleen) was 0.24 %ID/g, the tissue uptake at 1 h (in vivo; spleen, 60 min, read-out: uptake % ID/g, spleen) was 3.38 %ID/g and the tissue uptake at 2 h (in vivo; spleen, 120 min, read-out: uptake % ID/g, spleen) was 3.5 %ID/g. The tissue uptake at 1 h (in vivo; stomach, 60 min, blocked, read-out: uptake % ID/g, stomach) was 0.17 %ID/g, the tissue uptake at 1 h (in vivo; stomach, 60 min, read-out: uptake % ID/g, stomach) was 4.43 %ID/g and the tissue uptake at 2 h (in vivo; stomach, 120 min, read-out: uptake % ID/g, stomach) was 3.56 %ID/g. The tissue uptake at 1 h (in vivo; thyroid, 60 min, blocked, read-out: uptake % ID/g, thyroid) was 0.17 %ID/g, the tissue uptake at 1 h (in vivo; thyroid, 60 min, read-out: uptake % ID/g, thyroid) was 3.27 %ID/g and the tissue uptake at 2 h (in vivo; thyroid, 120 min, read-out: uptake % ID/g, thyroid) was 2.89 %ID/g. The tissue uptake at 1 h (in vivo; tumor M21 (high αvβ3), 60 min, blocked, read-out: uptake % ID/g, tumor M21) was 0.62 %ID/g, the tissue uptake at 1 h (in vivo; tumor M21 (high αvβ3), 60 min, read-out: uptake % ID/g, tumor M21) was 6.08 %ID/g and the tissue uptake at 2 h (in vivo; tumor M21 (high αvβ3), 120 min, read-out: uptake % ID/g, tumor M21) was 4.63 %ID/g. For the same compound, the tissue uptake at 1 h (in vivo; tumor M21L (low αvβ3), 60 min, blocked, read-out: uptake % ID/g, tumor M21L) was 0.31 %ID/g, the tissue uptake at 1 h (in vivo; tumor M21L (low αvβ3), 60 min, read-out: uptake % ID/g, tumor M21L) was 1.48 %ID/g and the tissue uptake at 2 h (in vivo; tumor M21L (low αvβ3), 120 min, read-out: uptake % ID/g, tumor M21L) was 1.7 %ID/g. The “fraction of the blood activity in the plasma after centrifugation” value ([1]; in vivo) was 96% and the “metabolites in tissue extracts, plasma and urine (radio-HPLC)” value ([1]; in vivo) was “no metabolites could be detected”.

In the case of `N=C(N)NCCC[C@@H]1NC(=O)[C@H](CCCCNC(=O)CCOCCOCCOCCOCCOCCOCCOCCOCCNC(=O)CCP(=O)(O)CN2CCN(CP(=O)(O)CCC(=O)NCCOCCOCCOCCOCCOCCOCCOCCOCCC(=O)NCCCC[C@@H]3NC(=O)[C@@H](Cc4ccccc4)NC(=O)[C@H](CC(=O)O)NC(=O)CNC(=O)[C@H](CCCNC(=N)N)NC3=O)CCN(CP(=O)(O)CCC(=O)NCCOCCOCCOCCOCCOCCOCCOCCOCCC(=O)NCCCC[C@@H]3NC(=O)[C@@H](Cc4ccccc4)NC(=O)[C@H](CC(=O)O)NC(=O)CNC(=O)[C@H](CCCNC(=N)N)NC3=O)CC2)NC(=O)[C@@H](Cc2ccccc2)NC(=O)[C@H](CC(=O)O)NC(=O)CNC1=O` [Ga-R3PEG8P9], the logP [2] is reported as -4.13 ± 0.16.

In the case of `N=C(N)NCCC[C@@H]1NC(=O)[C@H](CCCCNC(=O)CCOCCOCCOCCOCCNC(=O)CCP(=O)(O)CN2CCN(CP(=O)(O)CCC(=O)NCCOCCOCCOCCOCCC(=O)NCCCC[C@@H]3NC(=O)[C@H](Cc4ccccc4)NC(=O)[C@H](CC(=O)O)NC(=O)CNC(=O)[C@H](CCCNC(=N)N)NC3=O)CCN(CP(=O)(O)CCC(=O)NCCOCCOCCOCCOCCC(=O)NCCCC[C@@H]3NC(=O)[C@@H](Cc4ccccc4)NC(=O)[C@@H](CC(=O)O)NC(=O)CNC(=O)[C@@H](CCCNC(=N)N)NC3=O)CC2)NC(=O)[C@H](Cc2ccccc2)NC(=O)[C@H](CC(=O)O)NC(=O)CNC1=O` [Compound R3PEG4P9], the IC50 (αvβ3 integrin) is reported as 42.7 nM and the “stability in vivo (analysis of metabolites)” value [1] is reported as “fully stable in vivo”.
